These results are taken from patent US20040087498A1, “Modified factor VII” (Novo Nordisk Health Care AG, priority 1991, published 2004).

Several values for one entry are separate records, joined by “and”; a condition that tells them apart may be missing. Identical values can stand only once.

The test system of series [1] is fibrin deposition associated with endotoxemia. The experiment in a line: Fibrin deposition in kidneys and lungs in rabbits. The class given is in vivo, rabbit.
Series [2] in a line: ELISA for DEGR-FVIIa in rabbit plasma. The format is in vivo. Conditions: for FVIIa ELISA, DEGR-FVIIa in rabbit plasma, individual animals: listed as DEGR-FVIIa. The method, then: The test drug delivery for the animals consisted of an initial bolus injection immediately prior to balloon angioplasty, followed by a continuous systemic infusion by osmotic pump via the internal jugular vein. The duration of the drug infusion was 3 days. The control animals received heparin, 150 U/kg IV bolus, prior to balloon angioplasty followed by saline infusion. The DEGR-FVIIa treated animals received a 1 mg/kg bolus injection followed by 50 μg/kg/hr infusion.
Prothrombin time and concentration of DEGR-FVIIa in the blood were determined at immediately pre-bolus injection of the test compound, 1 hr post bolus injection, and at 3 days at the end of continuous infusion. One to two mls of citrated plasma was obtained and the prothrombin times and antigen levels determined.
An ELISA assay was used to determine the concentration of DEGR-FVIIa in plasma samples from the control and DEGR-FVIIa treated rabbits. The assay involved first diluting an anti-human FVII monoclonal antibody (Dr. W. Kisiel, U. of New Mexico) to 2.0 μg/ml in 0.1 M carbonate buffer pH 9.6, and adding 100 μl/well to 96-well plates. The plates were then incubated at 4° C. overnight and subsequently washed two times using wash buffer (PBS, pH 7.4, containing 0.05% Tween 20).
After blocking, a standard dilution series of DEGR-FVIIa ranging from 20-0.027 ng/ml was added, along with a dilution series of the test rabbit plasma (1:100 to 1:4000 in blocking buffer) applied at 100 μl/well. Non-immune rabbit plasma was used as a negative control. Plates were then incubated for 1 hr at 37° C. followed by four washes with wash buffer.
DEGR-FVIIa was detected by adding 100 μl/well of a 1:1,000 dilution of rabbit anti-human FVII polyclonal antibody (Dr. Kisiel, U. New Mexico) in blocking buffer. Plates were incubated for 1 hr at 37° C., followed by five washes with wash buffer. Specific antibody binding was detected using 100 μl/well of a 1:2,000 dilution of goat anti-rabbit IgG antibody-peroxidase conjugate (Tago, Inc.). Plates were incubated for 1 hr at 37° C. and washed six times with wash buffer. Finally, 100 μl of substrate solution was added (0.42 mg/ml of o-phenylenediamine dihydrochloride [OPD] in 0.2 M citrate buffer, pH 5.0, containing 0.3% H2O2). After 1-3 min at room temp. the color reaction was stopped by adding 100 μl/well of 1N H2SO4 and the plates were read at 490 nm on a Microplate spectrophotometer. The concentration of DEGR-FVIIa in the plasma samples was determined by comparing the A490 values of the unknown to those of the DEGR-FVIIa standard curve.

Series [3] has as its target T1, cell-surface tissue factor on rat smooth muscle cells (Rattus norvegicus, UniProt P42533).
T1 construct: endogenous in cells; host or cells: rat vascular smooth muscle cells
T1 sequence (P42533 29-295): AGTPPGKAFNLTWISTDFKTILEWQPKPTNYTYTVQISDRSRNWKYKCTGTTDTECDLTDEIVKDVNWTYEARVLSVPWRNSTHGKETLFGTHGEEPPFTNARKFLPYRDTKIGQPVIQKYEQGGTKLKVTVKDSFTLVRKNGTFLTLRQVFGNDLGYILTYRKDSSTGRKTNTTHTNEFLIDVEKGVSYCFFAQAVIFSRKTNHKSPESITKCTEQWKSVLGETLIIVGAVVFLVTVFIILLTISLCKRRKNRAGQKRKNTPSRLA
The experiment in a line: Dose-dependent cell-surface chromogenic activity on rat smooth muscle cells. The class given is cell-based. The protocol: Rat vascular smooth muscle cells were plated into 96-well culture dishes at 4,000 cells per well in growth medium supplemented with 1% fetal calf serum (as in Table 4 without 10% fetal calf serum). […] The cells were incubated with the Factor VII mixtures for 2 hours at 37° C. After incubation, the cells were washed and incubated with 50 μl of 200 nM Factor X in tris buffered saline for 5 minutes at room temperature. Each well had 25 μl of 0.5 M EDTA and 25 μl of […] S-2222 (Kabi Pharmacia) added to it, and the plates were incubated for 40 minutes at room temperature. Chromogenic activity was analyzed at 405 nm in a microplate reader as described above.

Series [4] concerns platelet accumulation at sites of arterial thrombosis. The experiment in a line: Platelet accumulation on endarterectomized baboon aorta in an extracorporeal shunt. The format is in vivo. An excerpt:
A model of aortic endarterectomy was utilized in baboons, essentially as described by Lumsden et al. (Blood 81:1762-1770 (1993)). A section of baboon aorta 1-2 cm in length was removed, inverted and scraped to remove the intima of the artery and approximately 50% of the media. The artery was reverted back to its correct orientation, cannulated on both ends and placed into an extracorporeal shunt in a baboon, thereby exposing the mechanically injured artery to baboon blood via the shunt. Just prior to opening of the shunt to the circulating blood, ^111In-labeled autologous platelets were injected intravenously into the animal. The level of platelet accumulation at the site of the injured artery was determined by real-time gamma camera imaging.
The injured arteries were measured continuously for 60 minutes. […] At a 1.0 mg/kg bolus injection, approximately 90% of platelet accumulation was inhibited at 1 hour post drug administration.

“DEGR-Factor VIIa: Recombinant human Factor VIIa with its active site derivatized by Dansyl-L-Glu-Gly-Arg-chloromethyl Ketone (DEGRck)”: the “fibrin deposition in kidneys and lungs” value in series [1] is “dose-response effect for blocking fibrin deposition in kidneys and lungs”. Also, the “FVIIa ELISA, DEGR-FVIIa in rabbit plasma, individual animals” value in series [2] (1 hour after 1 mg/kg bolus, 50 μg/kg/hr infusion) was 3,210 ng/ml and 4,950 ng/ml and 4,543 ng/ml and 4,900 ng/ml and 4,600 ng/ml and 2,145 ng/ml and 2,830 ng/ml; in series [2] (3 days, end of 50 μg/kg/hr infusion), 102 ng/mL and 7 ng/mL and 661 ng/mL and 117 ng/mL and 502 ng/mL and 212 ng/mL and 228 ng/mL; in series [2] (Pretreatment) it was 0 ng/ml and 1 ng/ml and 13 ng/ml (2×) and 65 ng/ml and 4 ng/ml and 9 ng/ml. Also, in series [2] (rabbit, 1 hr time point, range over animals), the “DEGR-FVIIa antigen level in the plasma” value fell in the range of 2 to 6 µg/mL. In addition, the “inhibition of the chromogenic activity” value in series [3] (1:1 molar ratio of DEGR-Factor VIIa:Factor VIIa) is “approximately 95%”. Further, the OD405 entry in series [3] (DEGR-Factor VIIa 1.56 nM co-incubated with 100 nM Factor VIIa) is “.116”; in series [3] (DEGR-Factor VIIa 6.25 nM co-incubated with 100 nM Factor VIIa) it was “.073”; in series [3] (DEGR-Factor VIIa 25.00 nM co-incubated with 100 nM Factor VIIa), “.026”; in series [3] (DEGR-Factor VIIa 100.00 nM co-incubated with 100 nM Factor VIIa), “.014”; in series [3] (DEGR-Factor VIIa .39 nM co-incubated with 100 nM Factor VIIa), “.176”. Besides, the platelet accumulation entry in series [4] (baboon, 0.005 mg/kg bolus injection) is recorded as “inhibited platelet accumulation”. For the same substance, in series [4] (baboon, 1.0 mg/kg bolus injection, 1 hour post drug administration), the “inhibition of platelet accumulation” value is “approximately 90%”. Also, the “thrombus formation (platelet deposition)” value in series [4] (bolus injection, arteries measured over 60 minutes, versus saline-treated controls) is listed as “significantly inhibited the development of platelet-rich thrombi”.
